Test results: paper PMC4770209, “Genome-wide binding studies reveal DNA binding specificity mechanisms and functional interplay amongst Forkhead transcription factors”

Experiments:
FOXK2(228-382) [1] = biological target: T1, FOXK2(228-382) (UniProt Q01167 228-382); assay: EMSA; competition; labelled WT probe; unlabelled WT competitor 25-200x; EMSA: 75 mM KCl, room temperature 30 min, 5% PAGE in 0.25x TBE at 4 C; pull-down conditions not in material; settings: protein: recombinant; tags: 6xHis; label: radioactive label (probe); 5' overhang 4 nt at both ends
T1 sequence (Q01167 228-382): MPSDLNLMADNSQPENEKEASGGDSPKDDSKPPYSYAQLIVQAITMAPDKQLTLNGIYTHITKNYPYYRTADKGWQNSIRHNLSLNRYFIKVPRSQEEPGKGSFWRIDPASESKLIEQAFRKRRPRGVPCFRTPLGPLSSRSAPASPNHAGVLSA

FOXO3(130-271) [2] = biological target: T2, FOXO3(130-271) (UniProt O43524 130-271); assay: as above; settings: protein: recombinant; tags: 6xHis; label: radioactive label (probe); 5' overhang 4 nt at both ends
T2 sequence (O43524 130-271): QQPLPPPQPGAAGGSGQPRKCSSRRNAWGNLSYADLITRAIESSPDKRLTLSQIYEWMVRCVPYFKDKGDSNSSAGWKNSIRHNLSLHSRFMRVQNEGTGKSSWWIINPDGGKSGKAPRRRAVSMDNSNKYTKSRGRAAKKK

FOXO3(130-271) [3] = biological target: T2, FOXO3(130-271); assay: competition; unlabelled competitor 25-200x; competes equally to WT; EMSA: 75 mM KCl, room temperature 30 min, 5% PAGE in 0.25x TBE at 4 C; pull-down conditions not in material; settings: protein: recombinant; tags: 6xHis; 5' overhang 4 nt at both ends
FOXK2(228-382) [4] = biological target: T1, FOXK2(228-382); assay: as above; settings: protein: recombinant; tags: 6xHis; 5' overhang 4 nt at both ends

B1: CYP27C1 WT (ADS2782/ADS2783) (dsDNA)
DNA 1: CTAGAACATGTTAATGTAAACAAGGAAGCCTG
DNA 2: CTAGCAGGCTTCCTTGTTTACATTAACATGTT
binding result (FOXK2(228-382) [1]): binds | binding result (FOXO3(130-271) [2]): binds

B2: CYP27C1mut1 (ADS3737/ADS3738) (dsDNA)
DNA 1: CTAGAACATGTTAGGGTAAACAAGGAAGCCTG
DNA 2: CTAGCAGGCTTCCTTGTTTACCCTAACATGTT
binding result (FOXO3(130-271) [3]): binds

B3: CYP27C1mut2 (ADS3739/ADS3740) (dsDNA)
DNA 1: CTAGAACATGTTAATGTAAACAGAGAAGCCTG
DNA 2: CTAGCAGGCTTCTCTGTTTACATTAACATGTT
binding result (FOXK2(228-382) [4]): binds | binding result (FOXO3(130-271) [3]): binds
